Columns and labels:
Experiment in all cases: cell-based or functional assay
[1] = molecular target: HIV-1 Env of pseudovirus HIV-0013095-2.11 (HIV-1)
[2] = molecular target: HIV-1 Env of pseudovirus CNE19 (HIV-1)
[3] = molecular target: HIV-1 Env of pseudovirus ZM197M.PB7 (HIV-1)
[4] = molecular target: HIV-1 Env of pseudovirus T257-31 (HIV-1)
[5] = molecular target: HIV-1 Env of pseudovirus THRO4156.18 (HIV-1)
[6] = molecular target: HIV-1 Env of pseudovirus CNE21 (HIV-1)
[7] = molecular target: HIV-1 Env of pseudovirus HIV-16055-2.3 (HIV-1)
[8] = molecular target: HIV-1 Env of pseudovirus PVO.4 (HIV-1)
[9] = molecular target: HIV-1 Env of pseudovirus TRJO4551.58 (HIV-1)
[10] = molecular target: HIV-1 Env of pseudovirus Ce1086_B2 (HIV-1)
[11] = molecular target: HIV-1 Env of pseudovirus AC10.0.29 (HIV-1)
[12] = molecular target: HIV-1 Env of pseudovirus 263-8 (HIV-1)
[13] = molecular target: HIV-1 Env of pseudovirus 246F C1G (HIV-1)
[14] = molecular target: HIV-1 Env of pseudovirus Q769.d22 (HIV-1)
[15] = molecular target: HIV-1 Env of pseudovirus ZM135M.PL10a (HIV-1)
[16] = molecular target: HIV-1 Env of pseudovirus SC422661.8 (HIV-1)
[17] = molecular target: HIV-1 Env of pseudovirus ZM247v1(Rev-) (HIV-1)
[18] = molecular target: HIV-1 Env of pseudovirus 9004SS_A3_4 (HIV-1)
[19] = molecular target: HIV-1 Env of pseudovirus SC05_8C11_2344 (HIV-1)
[20] = molecular target: HIV-1 Env of pseudovirus CNE52 (HIV-1)

In the case of PG9 (antibody), the IC50, titer in TZM.bl cells [1] is reported as 0.01 µg/mL, the IC80, titer in TZM.bl cells [1] is reported as 0.03 µg/mL and the IC50, titer in TZM.bl cells [2] is reported as 0.024 µg/mL. It also gave an IC80, titer in TZM.bl cells [2] of 0.146 µg/mL, an IC50, titer in TZM.bl cells [3] of 0.899 µg/mL and an IC80, titer in TZM.bl cells [3] of 4.52 µg/mL. For the same substance, the IC50, titer in TZM.bl cells [4] was 0.037 µg/mL, the IC80, titer in TZM.bl cells [4] was 0.124 µg/mL and the IC50, titer in TZM.bl cells [5] was 24.5 µg/mL. For the same substance, the IC80, titer in TZM.bl cells [5] was greater than 50 µg/mL, the IC50, titer in TZM.bl cells [6] was 0.038 µg/mL and the IC80, titer in TZM.bl cells [6] was 0.094 µg/mL. For the same substance, the IC50, titer in TZM.bl cells [7] was 0.021 µg/mL, the IC80, titer in TZM.bl cells [7] was 0.06 µg/mL and the IC50, titer in TZM.bl cells [8] was 10.6 µg/mL. For the same substance, the IC80, titer in TZM.bl cells [8] was greater than 50 µg/mL, the IC50, titer in TZM.bl cells [9] was 0.503 µg/mL and the IC80, titer in TZM.bl cells [9] was 4.06 µg/mL. The IC50, titer in TZM.bl cells [10] was greater than 50 µg/mL, the IC80, titer in TZM.bl cells [10] was greater than 50 µg/mL and the IC50, titer in TZM.bl cells [11] was 0.117 µg/mL. For the same substance, the IC80, titer in TZM.bl cells [11] was 0.845 µg/mL, the IC50, titer in TZM.bl cells [12] was 0.293 µg/mL and the IC80, titer in TZM.bl cells [12] was 1.05 µg/mL. The IC50, titer in TZM.bl cells [13] was greater than 50 µg/mL, the IC80, titer in TZM.bl cells [13] was greater than 50 µg/mL and the IC50, titer in TZM.bl cells [14] was 0.025 µg/mL. For the same substance, the IC80, titer in TZM.bl cells [14] was 0.068 µg/mL, the IC50, titer in TZM.bl cells [15] was 20.6 µg/mL and the IC80, titer in TZM.bl cells [15] was greater than 50 µg/mL. The IC50, titer in TZM.bl cells [16] was 0.553 µg/mL, the IC80, titer in TZM.bl cells [16] was 7.05 µg/mL and the IC50, titer in TZM.bl cells [17] was 0.112 µg/mL. For the same substance, the IC80, titer in TZM.bl cells [17] was 0.323 µg/mL, the IC50, titer in TZM.bl cells [18] was 0.088 µg/mL and the IC80, titer in TZM.bl cells [18] was 0.251 µg/mL. It also gave an IC50, titer in TZM.bl cells [19] of 0.892 µg/mL, an IC80, titer in TZM.bl cells [19] of 4.28 µg/mL and an IC50, titer in TZM.bl cells [20] of 0.029 µg/mL. For the same substance, the IC80, titer in TZM.bl cells [20] was 0.081 µg/mL.

Work on PG16 (antibody) yielded an IC50, titer in TZM.bl cells [1] of 0.002 µg/mL, an IC80, titer in TZM.bl cells [1] of 0.006 µg/mL and an IC50, titer in TZM.bl cells [2] of 0.024 µg/mL. It also gave an IC80, titer in TZM.bl cells [2] of 3.07 µg/mL, an IC50, titer in TZM.bl cells [3] of 1.5 µg/mL and an IC80, titer in TZM.bl cells [3] of 22.8 µg/mL. The IC50, titer in TZM.bl cells [4] was 0.007 µg/mL, the IC80, titer in TZM.bl cells [4] was 0.021 µg/mL and the IC50, titer in TZM.bl cells [5] was 6.83 µg/mL. For the same substance, the IC80, titer in TZM.bl cells [5] was greater than 50 µg/mL, the IC50, titer in TZM.bl cells [6] was 0.007 µg/mL and the IC80, titer in TZM.bl cells [6] was 0.026 µg/mL. For the same substance, the IC50, titer in TZM.bl cells [7] was 0.17 µg/mL, the IC80, titer in TZM.bl cells [7] was greater than 0.25 µg/mL and the IC50, titer in TZM.bl cells [8] was 15.3 µg/mL. For the same substance, the IC80, titer in TZM.bl cells [8] was greater than 50 µg/mL, the IC50, titer in TZM.bl cells [9] was 1.01 µg/mL and the IC80, titer in TZM.bl cells [9] was 24.5 µg/mL. The IC50, titer in TZM.bl cells [10] was greater than 50 µg/mL, the IC80, titer in TZM.bl cells [10] was greater than 50 µg/mL and the IC50, titer in TZM.bl cells [11] was 0.023 µg/mL. The IC80, titer in TZM.bl cells [11] was 0.417 µg/mL, the IC50, titer in TZM.bl cells [12] was 0.347 µg/mL and the IC80, titer in TZM.bl cells [12] was 4.97 µg/mL. For the same substance, the IC50, titer in TZM.bl cells [13] was greater than 50 µg/mL, the IC80, titer in TZM.bl cells [13] was greater than 50 µg/mL and the IC50, titer in TZM.bl cells [14] was 0.005 µg/mL. The IC80, titer in TZM.bl cells [14] was 0.018 µg/mL, the IC50, titer in TZM.bl cells [15] was greater than 50 µg/mL and the IC80, titer in TZM.bl cells [15] was greater than 50 µg/mL. For the same substance, the IC50, titer in TZM.bl cells [16] was 0.858 µg/mL, the IC80, titer in TZM.bl cells [16] was greater than 50 µg/mL and the IC50, titer in TZM.bl cells [17] was 0.016 µg/mL. The IC80, titer in TZM.bl cells [17] was 0.189 µg/mL, the IC50, titer in TZM.bl cells [18] was 0.02 µg/mL and the IC80, titer in TZM.bl cells [18] was 0.111 µg/mL. The IC50, titer in TZM.bl cells [19] was 0.07 µg/mL, the IC80, titer in TZM.bl cells [19] was 1.62 µg/mL and the IC50, titer in TZM.bl cells [20] was 0.009 µg/mL. For the same substance, the IC80, titer in TZM.bl cells [20] was 0.026 µg/mL.

Reference: patent publication US20230002480A1
